Consider seven substances from patent US20160347802A1.

The target of one experiment is Islr2, AVEXIS protein. Nature of the experiment: method not stated; the filers' own unpublished determination ('in preparation'), used to calibrate the AVEXIS screen.
For experiment [1], the target named is human Netrin-3, AVEXIS protein (human) (UniProt O00634). Nature of the experiment: AVEXIS, prey on bait NTN3; white = No binding.
Experiment [2] concerns the target biotinylated recombinant human UNC5B (human) (UniProt Q8IZJ1). Nature of the experiment: AVEXIS, prey on bait UNC5B; white = No binding.
Experiment [3] has as its target Matn4 ECD, mono-biotinylated bait protein (positive control). Nature of the experiment: AVEXIS, prey on bait Matn4 (+), positive control for the prey; dark = Binding.
The target of experiment [4] is human Netrin-G1, AVEXIS protein (human) (UniProt Q9Y2I2). Nature of the experiment: AVEXIS, prey on bait NTNG1; white = No binding.
Chain of human Netrin-G1, AVEXIS protein (human) (Q9Y2I2 29-510): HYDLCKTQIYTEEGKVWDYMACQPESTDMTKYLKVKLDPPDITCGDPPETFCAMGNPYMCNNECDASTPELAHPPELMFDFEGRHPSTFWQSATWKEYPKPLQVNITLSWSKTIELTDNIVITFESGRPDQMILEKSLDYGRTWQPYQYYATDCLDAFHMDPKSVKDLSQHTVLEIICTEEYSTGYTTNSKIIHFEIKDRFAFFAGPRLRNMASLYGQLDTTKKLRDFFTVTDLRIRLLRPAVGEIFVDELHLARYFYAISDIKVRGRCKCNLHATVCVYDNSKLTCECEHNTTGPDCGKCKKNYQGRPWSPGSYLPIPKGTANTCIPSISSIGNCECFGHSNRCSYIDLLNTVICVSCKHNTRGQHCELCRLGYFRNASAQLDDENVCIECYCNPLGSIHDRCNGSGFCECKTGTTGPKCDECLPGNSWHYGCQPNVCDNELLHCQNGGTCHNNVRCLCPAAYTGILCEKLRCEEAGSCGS
Experiment [5] addresses human DRAXIN, AVEXIS prey or bait protein (human) (UniProt Q8NBI3). Nature of the experiment: AVEXIS, prey on bait DRAXIN; white = No binding.
Experiment [6] has as its target human Netrin-G2, AVEXIS protein (human) (UniProt Q96CW9). Nature of the experiment: AVEXIS, prey on bait NTNG2; white = No binding.
In experiment [7] the target is human DRAXIN 21 amino acid Netrin binding fragment, AVEXIS prey or bait protein (human). Nature of the experiment: AVEXIS, prey on bait DRAXIN 21aa; white = No binding.
Chain of human DRAXIN 21 amino acid Netrin binding fragment, AVEXIS prey or bait protein (human) (peptide, as listed by the source): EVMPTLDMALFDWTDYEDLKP
Experiment [8] addresses biotinylated recombinant human DCC (human) (UniProt P43146). Nature of the experiment: AVEXIS, prey on bait DCC; white = No binding.
Experiment [9] has as its target human Netrin1, recombinant AVEXIS protein (biotinylated when immobilised) (human) (UniProt O95631). Nature of the experiment: AVEXIS, prey on bait NTN1; dark = Binding.
Experiment [10] addresses human Netrin-4, AVEXIS protein (human) (UniProt Q9HB63). Nature of the experiment: AVEXIS, prey on bait NTN4; white = No binding.
In experiment [11] the target is zebrafish Netrin1a, AVEXIS bait or prey protein (zebrafish). Nature of the experiment: AVEXIS, prey on bait zNetrin1a, upper value; grey = Weak binding.
The target is the same in experiment [12]. Nature of the experiment: AVEXIS, prey on bait zNetrin1a, lower value; grey = Weak binding.
The target in experiment [13] is zebrafish DraxinA, AVEXIS prey or bait protein (zebrafish) (UniProt Q4V9H3). Nature of the experiment: AVEXIS, prey on bait zDraxinA, upper value; black = Binding.
Chain of zebrafish DraxinA, AVEXIS prey or bait protein (zebrafish) (Q4V9H3 other isoform, or with tags, fused parts or gaps): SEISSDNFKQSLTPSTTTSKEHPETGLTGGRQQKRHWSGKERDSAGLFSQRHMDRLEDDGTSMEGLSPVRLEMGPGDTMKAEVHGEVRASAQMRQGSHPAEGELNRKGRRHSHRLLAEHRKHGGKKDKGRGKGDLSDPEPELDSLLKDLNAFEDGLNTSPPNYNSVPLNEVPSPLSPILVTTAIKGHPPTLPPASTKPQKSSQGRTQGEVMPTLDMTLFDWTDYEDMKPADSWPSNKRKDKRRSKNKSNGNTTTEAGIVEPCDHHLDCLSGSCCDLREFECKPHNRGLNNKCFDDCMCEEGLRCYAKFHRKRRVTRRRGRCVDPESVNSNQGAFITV
The target in experiment [14] is human DRAXIN, AVEXIS prey or bait protein (human) (UniProt Q8NBI3). Nature of the experiment: AVEXIS, prey on bait hDRAXIN, lower value; black = Binding.
Chain of human DRAXIN, AVEXIS prey or bait protein (human) (Q8NBI3 26-349): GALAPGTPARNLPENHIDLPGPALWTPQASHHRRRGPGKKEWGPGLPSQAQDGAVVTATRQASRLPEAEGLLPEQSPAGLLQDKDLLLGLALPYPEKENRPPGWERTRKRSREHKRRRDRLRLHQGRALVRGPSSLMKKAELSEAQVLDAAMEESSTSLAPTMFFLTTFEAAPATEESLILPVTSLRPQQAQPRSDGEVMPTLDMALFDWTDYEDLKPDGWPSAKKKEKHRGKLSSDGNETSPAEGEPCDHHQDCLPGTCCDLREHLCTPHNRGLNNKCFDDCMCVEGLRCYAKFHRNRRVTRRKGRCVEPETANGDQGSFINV
For experiment [15], the target named is zebrafish DraxinA, AVEXIS prey or bait protein (zebrafish) (UniProt Q4V9H3). Nature of the experiment: AVEXIS, prey on bait zDraxinA, lower value; black = Binding.
The target in experiment [16] is human Netrin1, recombinant AVEXIS protein (biotinylated when immobilised) (human) (UniProt O95631). Nature of the experiment: AVEXIS, prey on bait hNETRIN1, lower value; white = No binding.
The target is the same in experiment [17]. Nature of the experiment: AVEXIS, prey on bait hNETRIN1, upper value; white = No binding.
Experiment [18] addresses human DRAXIN, AVEXIS prey or bait protein (human) (UniProt Q8NBI3). Nature of the experiment: AVEXIS, prey on bait hDRAXIN, upper value; black = Binding.
Experiment [19] concerns the target zebrafish DraxinB, AVEXIS protein (zebrafish). Nature of the experiment: AVEXIS, prey on bait zDraxinB, lower value; black = Binding.
Experiment [20] deals with zebrafish Netrin1a, AVEXIS bait or prey protein (zebrafish). Nature of the experiment: AVEXIS, prey on bait zNetrin1a, upper value; white = No binding.
Experiment [21] concerns the target zebrafish DraxinB, AVEXIS protein (zebrafish). Nature of the experiment: AVEXIS, prey on bait zDraxinB, upper value; black = Binding.
Experiment [22] has as its target zebrafish Netrin1a, AVEXIS bait or prey protein (zebrafish). Nature of the experiment: AVEXIS, prey on bait zNetrin1a, lower value; white = No binding.

Chain of human Netrin-G2, AVEXIS protein (human) (Q96CW9 18-507): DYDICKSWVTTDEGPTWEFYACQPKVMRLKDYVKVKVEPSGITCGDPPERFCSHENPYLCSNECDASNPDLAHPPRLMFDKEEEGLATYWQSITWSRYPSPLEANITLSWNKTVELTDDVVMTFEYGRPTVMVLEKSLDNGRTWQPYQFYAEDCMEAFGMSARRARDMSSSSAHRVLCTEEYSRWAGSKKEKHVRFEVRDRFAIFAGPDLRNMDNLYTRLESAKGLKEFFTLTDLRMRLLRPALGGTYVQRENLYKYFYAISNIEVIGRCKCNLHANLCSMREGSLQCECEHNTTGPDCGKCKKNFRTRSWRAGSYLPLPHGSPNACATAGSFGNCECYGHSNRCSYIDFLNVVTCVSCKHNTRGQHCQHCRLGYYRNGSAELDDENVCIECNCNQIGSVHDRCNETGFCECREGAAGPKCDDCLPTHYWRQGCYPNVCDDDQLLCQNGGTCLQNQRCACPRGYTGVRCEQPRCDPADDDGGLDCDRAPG
Chain of human Netrin-3, AVEXIS protein, O00634 28-580 (ligand; other documents disagree on this pair) (O00634 28-580): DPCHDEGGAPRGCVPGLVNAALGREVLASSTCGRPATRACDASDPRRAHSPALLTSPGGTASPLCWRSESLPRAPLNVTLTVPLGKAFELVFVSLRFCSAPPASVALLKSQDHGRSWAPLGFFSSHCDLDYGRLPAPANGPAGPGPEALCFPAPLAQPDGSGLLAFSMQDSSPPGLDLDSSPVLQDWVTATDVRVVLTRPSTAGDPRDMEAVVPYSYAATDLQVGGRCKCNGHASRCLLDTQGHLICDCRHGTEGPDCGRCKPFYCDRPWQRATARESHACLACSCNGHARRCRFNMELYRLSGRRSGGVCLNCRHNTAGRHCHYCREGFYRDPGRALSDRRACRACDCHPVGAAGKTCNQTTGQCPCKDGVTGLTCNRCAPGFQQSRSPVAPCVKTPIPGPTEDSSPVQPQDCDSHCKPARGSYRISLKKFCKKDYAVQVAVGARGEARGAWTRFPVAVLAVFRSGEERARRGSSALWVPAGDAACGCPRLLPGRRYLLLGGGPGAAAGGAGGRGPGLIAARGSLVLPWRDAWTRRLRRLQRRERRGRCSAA
Chain of human Netrin-3, AVEXIS protein (human) (O00634 28-580): as above
Chain of human Netrin-4, AVEXIS protein (human) (Q9HB63 19-628): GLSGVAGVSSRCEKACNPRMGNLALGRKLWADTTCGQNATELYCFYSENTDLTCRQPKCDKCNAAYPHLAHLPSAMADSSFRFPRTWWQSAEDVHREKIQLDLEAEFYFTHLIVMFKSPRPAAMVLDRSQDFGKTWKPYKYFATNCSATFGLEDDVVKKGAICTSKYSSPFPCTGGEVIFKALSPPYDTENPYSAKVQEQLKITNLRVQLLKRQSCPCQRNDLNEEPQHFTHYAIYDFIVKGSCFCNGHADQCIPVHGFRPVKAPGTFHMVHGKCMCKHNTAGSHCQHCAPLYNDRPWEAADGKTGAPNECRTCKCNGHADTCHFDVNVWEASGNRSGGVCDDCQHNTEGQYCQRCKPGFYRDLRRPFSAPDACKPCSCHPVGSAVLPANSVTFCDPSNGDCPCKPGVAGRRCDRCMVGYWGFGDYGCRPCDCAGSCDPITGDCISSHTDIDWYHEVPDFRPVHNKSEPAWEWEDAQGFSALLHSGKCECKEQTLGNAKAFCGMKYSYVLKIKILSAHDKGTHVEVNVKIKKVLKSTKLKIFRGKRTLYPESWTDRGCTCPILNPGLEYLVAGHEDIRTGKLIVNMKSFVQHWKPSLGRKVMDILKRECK

Consider Vasn (Slit-like2), AVEXIS protein, for which, in the experiment with Islr2, AVEXIS protein, the equilibrium dissociation constant (Kd) (usually the equilibrium constant for the complex coming apart) was 12 µM and the half-life (t½) came out at 0.16 s.
Consider “biotinylated recombinant human DCC (from UniProt P43146 26-1097) (receptor)”, for which the A486nm in [1] was 0.076; in [2], 0.062; in experiment [3] it was 0.278; in [4], 0.065; in experiment [5], 0.064; in experiment [6] it was 0.061. The A486nm worked out at 0.062 in experiment [7], 0.065 in experiment [8], 0.377 in [9] and 0.064 in experiment [10].
Consider “biotinylated recombinant human UNC5B (from UniProt Q8IZJ1 27-377) (receptor)”, for which, in experiment [8], the A486nm came to 0.064.
On the same count and under the same terms, the figure for “human Netrin-3, AVEXIS protein (from UniProt O00634 28-580) (ligand)” is 0.067.
Consider “human Netrin-3, AVEXIS protein, O00634 28-580 (ligand; other documents disagree on this pair)”, for which, in experiment [2], the A486nm amounted to 0.066.
With “zebrafish DraxinB, AVEXIS protein (ligand)”, the A486nm came to 0.103 in experiment [11] and 0.084 in experiment [12].
Consider “zebrafish Netrin1a, AVEXIS bait or prey protein (ligand)”, for which the A486nm in experiment [13] came to 0.323; in [14], 0.249; in experiment [15], 0.276; in experiment [16] it was 0.059; in experiment [17], 0.064; in experiment [18] it was 0.136. In addition, the A486nm in experiment [19] was 0.174; in [20] it was 0.064; in experiment [21] it was 0.235; in [22] it was 0.063.
